Assay results published in patent US20250206828A1, “ANTI-ADENOSINE RECEPTOR (A2aR) ANTIBODIES AND THE USE THEREOF” (Adept Therapeutics Inc., priority 2022, published 2025).
Where a chain is given by its changes, count along the chain named.

B1: Hu3F6-H3/Hu3F6-L5: humanized anti-A2aR IgG1 FES antibody; HCVR SEQ ID NO:60, LCVR SEQ ID NO:80 (antibody, V domains shown)
VH: EVQLVQSGAEVKKPGASVKVSCKTSGFAFTSYWMNWVRQAPGQGLEWIGRIDPSDSEAHYHHKFWGRATLTVDTSSSTVYMELSSLRSEDTAVYYCLRSLYGKGDYWGHGTTVTVSS
VL: DVVMTQTPLSLSVTPGQPASISCRSSQSLVHRNGNTYLEWYLQKPGQSPQLLIYKVSNRFSGVPDRFSGSGSGTDFTLKISRVEAEDVGVYYCYQGSHVPLTFGGGTKVEIK
B2: Hu3F6-H5/Hu3F6-L5: humanized anti-A2aR IgG1 FES antibody; HCVR SEQ ID NO:62, LCVR SEQ ID NO:80 (antibody, V domains shown)
VH: B1 VH with H61A, T74K
VL: B1 VL

Key:
[1] = tested on: human PBMCs (CD4 T, CD8 T, NK cells); experiment: Restoration of IFN-γ and IL-2 production of NECA-suppressed T cells and NK cells (intracellular cytokine staining); assay type: cell-based; details: anti-CD3/28 Dynabeads activated, 0.1 μM NECA; for restoring IFN-γ production in human CD4 T suppressed by NECA (FIG. 5A): compared with AB928, AZD4635 and CPI-444; for restoring IL-2 production in human CD4 T suppressed by NECA (FIG. 5B): compared with AZD4635 and CPI-444
[2] = target: human A2aR-expressing HEK293 cells (Homo sapiens, UniProt P29274); experiment: Flow cytometry based internalization assay; assay type: cell-based; details: 1, 0.5 and 0.25 μg/ml, 1, 2 and 4 hours at 37° C.
Chain of human A2aR-expressing HEK293 cells (P29274 whole entry): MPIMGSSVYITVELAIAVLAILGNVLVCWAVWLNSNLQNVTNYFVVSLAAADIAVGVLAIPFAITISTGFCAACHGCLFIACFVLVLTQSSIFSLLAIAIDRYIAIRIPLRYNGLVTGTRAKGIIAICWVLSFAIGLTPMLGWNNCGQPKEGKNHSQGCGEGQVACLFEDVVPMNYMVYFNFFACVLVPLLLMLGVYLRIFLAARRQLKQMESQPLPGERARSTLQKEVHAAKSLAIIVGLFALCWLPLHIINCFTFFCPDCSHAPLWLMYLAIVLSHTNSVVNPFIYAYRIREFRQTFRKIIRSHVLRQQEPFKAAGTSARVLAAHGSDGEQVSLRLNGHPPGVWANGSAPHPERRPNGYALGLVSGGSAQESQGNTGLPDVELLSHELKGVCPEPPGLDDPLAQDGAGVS
Procedure: 2×10^5/well freshly cultured human A2aR-expressing HEK293 cells (BPS Bioscience) were incubated with antibodies to be tested at indicated concentration (1, 0.5 and 0.25 μg/ml) on ice for 45 minutes. Parental 3F6 were used as positive control. After wash with FACS buffer, samples were split into 4 sets. One set of samples were maintained on ice. The other three sets of samples were left in 37° C., 5% CO2 incubator for further incubation for 1, 2 and 4 hours. All four sets of samples were followed by staining with PE-conjugated goat-anti-human Fc antibody (1:400, Jackson Immuno Research, Cat. 109-116-098) for 30 minutes, and then washed with cold FACS buffer, cells were then stained with 1:100 diluted 7−AAD (Biolegend) and then fixed with 2% of paraformaldehyde (diluted from 10% paraformaldehyde (MilliporeSigma, Cat. R04586)). All samples were analyzed on Guava 11HT or 5HT (Luminex). The mean fluorescence intensity (MFI) was obtained and data was analyzed using Flowjo software. Internalization rate was calculated as: […]

[3] = target: T1, human A2aR on the cell surface of human PBMCs (Homo sapiens, UniProt P29274); experiment: Binding of anti-A2aR antibodies to human PBMC subsets (CD4 T, CD8 T, NK, NKT cells; FACS); details: for binding to human T cells (CD4, CD8), NK cells and NKT cells: human PBMCs, FACS
T1 construct: host or cells: human PBMCs (CD4 T, CD8 T, NK, NKT subsets)
T1 sequence (P29274 whole entry): as above
Procedure: (§1) Human and cynomolgus PBMCs were purchased from Cytologics LLC (San Diego, CA) and iQ Biosciences (Berkeley, CA), respectively. 10^6 human and/or cynomolgus PBMCs in 100 μl FACS buffer (1×DPBS, 2% FBS) were incubated with anti-A2aR antibodies at 4° C. for 30 minutes. After wash, samples were stained with PE-conjugated goat-anti-human Fc antibody (1:400, Jackson ImmunoResearch Labs, Cat. 109-116-098) and other surface markers using cynomolgus cross-reactive APC/cy7-anti-CD3 (BD Bioscience, Cat. 557757), BV421-anti-CD4 (Biolegend, Cat. 317433), BV650-anti-CD8 (Biolegend, Cat. 301042) and BV711-anti-CD56 (BD Bioscience, Cat. 742661) for 30 minutes, and Zombie Green fixable Viability dye (Biolegend, Cat. 423111) were used according to manufacturer's instruction to define live immune cell subsets. After wash with FACS buffer, cells were analyzed on FACSAria (BD). Data was analyzed using Flowjo (Becton Dickinson).

[4] = tested on: cynomolgus A2aR on the cell surface of cynomolgus PBMCs; experiment: Binding of anti-A2aR antibodies to cynomolgus PBMC subsets (CD4 T, CD8 T, NK, NKT cells; FACS); details: for binding (cross-reactivity) to cynomolgus T cells (CD4+, CD8+), NK cells and NKT cells: cynomolgus PBMCs, FACS
Chain of cynomolgus A2aR on the cell surface of cynomolgus PBMCs (as listed by the source): as the sequence (P29274 whole entry) above, with S263N, A371T, G379S, D407G counted along it
Procedure: as §1

[5] = target: T2, human A2aR-expressing CHO cells (Homo sapiens, UniProt P29274); experiment: pH-sensitive dye (Zenon pHrodo iFL RED) based internalization assay; assay type: cell-based; details: 24 hours
T2 construct: expressed in transfected cells; host or cells: CHO
T2 sequence (P29274 whole entry): as the sequence (P29274 whole entry) above
Text: The Invitrogen™ Zenon™ pHrodo™ iFL RED human IgG Labeling Reagents (Cat. Z25612) Z25612) is low-pH sensitive dye and was used to determine the internalizing properties of the exemplary anti-A2aR antibodies following manufacture's instruction. The internalization of antibodies coupled with the Zenon™ pHrodo™ iFL RED human IgG Labeling reagents increase the fluorescence signal at low pH intracellular compartment in a cell, providing a method for visualizing internalization under fluorescent microscopy.
Twenty-five microliters (25 μL) of 4× working solution of Zenon™ pHrodo™ iFL IgG Labeling Reagent were also prepared in freestyle CHO expression medium and then added to each well of a 96-well plate containing antibodies. The solutions in the 96-well plate were mixed and incubated for 5 minutes at room temperature to allow the labeling complexes to form. Afterwards, fifty microliters (50 μl) of 2×10^6/ml human A2aR-expressing CHO cells were added to each well containing labeled antibodies. Cells were then incubated with the labeling complex for 24 hours under standard cell culture conditions. Cells were analyzed under immunofluorescent microscope (Invitrogen EVOS cell imaging system M5000) to visualize the internalization of antibodies by cells. Internalization of antibody was imaged using EVOS imaging systems (Invitrogen).

Molecule | restoring IL-2 production in human CD4 T suppressed by NECA (FIG. 5B) [1] | internalization upon binding to cell surface A2aR (percentage of internalization, FIG. 2) [2] | % of A2aR+ CD8+ T cells ([3]; human 1 PBMC) | % of A2aR+ NK cells ([3]; human 1 PBMC) | % of A2aR+ NKT cells ([3]; human 1 PBMC) | % of A2aR+ CD8+ T cells ([3]; human 2 PBMC) | % of A2aR+ NK cells ([3]; human 2 PBMC) | % of A2aR+ NKT cells ([3]; human 2 PBMC) | binding to human T cells (CD4, CD8), NK cells and NKT cells [3] | % of A2aR+ CD4+ T cells ([4]; Cynomolgus 1 PBMC) | % of A2aR+ CD8+ T cells ([4]; Cynomolgus 1 PBMC) | % of A2aR+ NK cells ([4]; Cynomolgus 1 PBMC) | % of A2aR+ NKT cells ([4]; Cynomolgus 1 PBMC) | % of A2aR+ CD4+ T cells ([4]; Cynomolgus 2 PBMC) | % of A2aR+ CD8+ T cells ([4]; Cynomolgus 2 PBMC) | % of A2aR+ NK cells ([4]; Cynomolgus 2 PBMC) | % of A2aR+ NKT cells ([4]; Cynomolgus 2 PBMC) | binding (cross-reactivity) to cynomolgus T cells (CD4+, CD8+), NK cells and NKT cells [4] | induction of internalization (pHrodo fluorescence microscopy, FIG. 3) [5] | also measured
B1 | can restore the intracellular IFN gamma and IL2 production | induce internalization upon binding to cell surface A2aR | 0.04% | 0.69% | 0.46% | 0.04% | 0.75% | 0.55% | bound to various human and cynomolgus CD4+ and CD8+ T cells | 1.65% | 0.05% | 6.52% | 1.06% | 1.20% | 0.11% | 2.07% | 0.45% | bound to various human and cynomolgus CD4+ and CD8+ T cells | internalization can be induced | restoring IFN-γ production in human CD4 T suppressed by NECA (FIG. 5A) ([1]; listed as Hu3F6-VH3/Hu3F6-VL5): higher potency in restoring IFN-γ production; restoring IFN-γ production in human CD4 T suppressed by NECA (FIG. 5A) ([1]; listed as Hu3F6-VH3/VL5): can restore the intracellular IFN gamma and IL2 production; % of A2aR+ CD4+ T cells ([3]; human 1 PBMC): 0.43%; % of A2aR+ CD4+ T cells ([3]; human 2 PBMC): 0.44%
B2 | can restore the intracellular IFN gamma and IL2 production | induce internalization upon binding to cell surface A2aR | 0.05% | 0.66% | 0.42% | 0.03% | 0.62% | 0.48% | bound to various human and cynomolgus CD4+ and CD8+ T cells | 4.76% | 0.15% | 5.71% | 4.14% | 10.6% | 0.41% | 2.92% | 4.28% | bound to various human and cynomolgus CD4+ and CD8+ T cells | internalization can be induced | restoring IFN-γ production in human CD4 T suppressed by NECA (FIG. 5A) ([1]; listed as Hu3F6-VH5/Hu3F6-VL5): higher potency in restoring IFN-γ production; restoring IFN-γ production in human CD4 T suppressed by NECA (FIG. 5A) ([1]; listed as Hu3F6-VH5/VL5): can restore the intracellular IFN gamma and IL2 production
